Data as given in US20030064071A1.

Tests used:
DC-SIGN (human) [1] = target: DC-SIGN (human) (UniProt Q9NNX6); test: flow cytometry, mature DC day 9, TNFα-matured (endogenous DC-SIGN)
DC-SIGN (human) [2] = target: DC-SIGN (human) (UniProt Q9NNX6); test: flow cytometry, mature DC day 9, MCM/PGE2-matured (endogenous DC-SIGN)
DC-SIGN (human) [3] = target: DC-SIGN (human) (UniProt Q9NNX6); test: flow cytometry, mature DC day 9, LPS-matured (endogenous DC-SIGN)
DC-SIGN (human) [4] = target: DC-SIGN (human) (UniProt Q9NNX6); test: flow cytometry, immature DC day 7 (endogenous DC-SIGN)
DC-SIGN (human) [5] = target: DC-SIGN (human) (UniProt Q9NNX6); test: cell-based or functional assay

DC-SIGN (human), sequence (Q9NNX6 whole entry): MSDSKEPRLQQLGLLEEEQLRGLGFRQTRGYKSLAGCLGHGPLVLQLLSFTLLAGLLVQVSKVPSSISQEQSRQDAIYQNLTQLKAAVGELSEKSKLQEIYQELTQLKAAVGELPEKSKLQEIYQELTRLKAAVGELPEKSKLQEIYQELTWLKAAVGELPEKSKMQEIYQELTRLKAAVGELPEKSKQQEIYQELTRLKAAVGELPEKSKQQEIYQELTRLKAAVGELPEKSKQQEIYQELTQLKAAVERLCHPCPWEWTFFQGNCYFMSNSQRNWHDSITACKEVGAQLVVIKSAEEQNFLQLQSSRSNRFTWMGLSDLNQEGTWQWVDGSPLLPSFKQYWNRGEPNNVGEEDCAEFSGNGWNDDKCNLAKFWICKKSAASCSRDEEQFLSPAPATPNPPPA

## AZN-D1 (antibody)
DC-SIGN (human) [1]
  mean fluorescence of staining (mean fluorescence): 420
DC-SIGN (human) [2]
  mean fluorescence of staining (mean fluorescence): 445
DC-SIGN (human) [3]
  mean fluorescence of staining (mean fluorescence): 489
DC-SIGN (human) [4]
  mean fluorescence of staining (mean fluorescence): 980

## HxB2 envelope (from UniProt P04578 33-856)
DC-SIGN (human) [5]
  luciferase activity (unactivated T cells, THP-SIGN cells relative to THP cells): 20 fold
